Assays:
[1] = biological target: T1, full-length human kinesin-1 heavy chain (KIF5B-GFP-SNAPf) (human, UniProt P33176 1-963, fluorescent dye in motility assays (LD555-kinesin, Alexa488-kinesin)); test: single-molecule TIRF colocalisation on microtubules; two-colour imaging of labeled kinesin and labeled TRAK constructs on surface-immobilized MTs, 0-50 nM MAP7, 1 mM Mg·ATP; also with 2 mM Ca2+; details: both partners purified
T1 construct: kinesin-1 heavy chain KIF5B, human, amino acids 1-963, full length; source: baculovirus-infected SF9 cells, purified (IgG Sepharose, TEV protease); not shown: His6-ZZ, N-terminal, cleaved; GFP, C-terminal, kept; SNAPf, C-terminal, kept
T1 sequence (looked up): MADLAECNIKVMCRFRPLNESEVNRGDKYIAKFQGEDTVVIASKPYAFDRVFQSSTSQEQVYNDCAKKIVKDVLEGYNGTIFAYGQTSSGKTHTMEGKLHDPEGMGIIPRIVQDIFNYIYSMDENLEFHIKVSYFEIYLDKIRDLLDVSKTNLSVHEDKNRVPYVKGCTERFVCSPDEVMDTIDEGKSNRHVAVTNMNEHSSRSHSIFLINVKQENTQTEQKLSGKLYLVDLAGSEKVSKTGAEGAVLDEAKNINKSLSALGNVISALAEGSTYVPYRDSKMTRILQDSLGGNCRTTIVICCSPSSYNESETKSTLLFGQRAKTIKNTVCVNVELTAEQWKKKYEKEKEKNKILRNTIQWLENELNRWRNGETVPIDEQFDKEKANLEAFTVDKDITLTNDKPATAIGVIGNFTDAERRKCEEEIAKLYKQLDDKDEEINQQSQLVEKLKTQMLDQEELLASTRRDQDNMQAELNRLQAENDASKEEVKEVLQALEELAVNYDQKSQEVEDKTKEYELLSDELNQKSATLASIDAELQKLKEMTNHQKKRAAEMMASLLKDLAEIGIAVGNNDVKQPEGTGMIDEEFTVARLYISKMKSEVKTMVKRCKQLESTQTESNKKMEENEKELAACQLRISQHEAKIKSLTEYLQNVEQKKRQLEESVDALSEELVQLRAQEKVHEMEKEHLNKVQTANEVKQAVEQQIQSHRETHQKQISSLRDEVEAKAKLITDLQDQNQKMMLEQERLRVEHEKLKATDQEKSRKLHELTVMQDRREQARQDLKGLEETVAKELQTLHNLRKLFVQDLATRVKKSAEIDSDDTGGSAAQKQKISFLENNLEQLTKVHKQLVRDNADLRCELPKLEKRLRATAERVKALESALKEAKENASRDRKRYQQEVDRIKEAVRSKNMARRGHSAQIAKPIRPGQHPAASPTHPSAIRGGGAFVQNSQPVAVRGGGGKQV

[2] = biological target: T2, Miro1^1–592 (Miro1^1–592-SNAP-psc-StrepII) (human, UniProt Q8IXI2 1-592, LD655 dye on the SNAP tag in motility assays); test: single-molecule TIRF colocalisation on microtubules; three-colour imaging of Alexa488-KIF5B, LD555-TRAK1 1-532 (or full-length TRAK1) and LD655-Miro1 1-592; 10 nM MAP7; 0, 0.1 and 2 mM Ca2+; details: both partners purified
T2 construct: mitochondrial Rho GTPase 1 (Miro1), human, residues 1-592, lacks the transmembrane domain; A PreScission site (psc) stands between SNAP and StrepII; no cleavage is told; also called Miro1^1–592-StrepII; Miro1^1–592-SNAPf-StrepII; source: purified (Streptactin Sepharose, eluted with desthiobiotin); not shown: SNAP, C-terminal, kept; StrepII, C-terminal, kept
T2 sequence (Q8IXI2 1-592): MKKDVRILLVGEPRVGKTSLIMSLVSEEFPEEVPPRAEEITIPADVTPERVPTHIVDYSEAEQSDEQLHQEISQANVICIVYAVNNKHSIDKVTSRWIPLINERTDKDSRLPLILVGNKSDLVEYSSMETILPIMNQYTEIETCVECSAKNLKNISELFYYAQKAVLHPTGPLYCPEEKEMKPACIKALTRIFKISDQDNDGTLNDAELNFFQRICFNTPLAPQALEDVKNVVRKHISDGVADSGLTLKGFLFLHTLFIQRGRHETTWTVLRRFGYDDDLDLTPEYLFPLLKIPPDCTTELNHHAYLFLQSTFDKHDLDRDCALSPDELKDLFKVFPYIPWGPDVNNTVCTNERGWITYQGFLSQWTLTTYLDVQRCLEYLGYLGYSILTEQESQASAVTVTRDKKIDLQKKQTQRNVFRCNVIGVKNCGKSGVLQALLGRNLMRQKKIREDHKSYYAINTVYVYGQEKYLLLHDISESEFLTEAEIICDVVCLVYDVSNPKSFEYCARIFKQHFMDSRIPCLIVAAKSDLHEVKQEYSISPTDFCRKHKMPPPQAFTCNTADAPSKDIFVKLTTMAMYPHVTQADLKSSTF

[3] = biological target: T1, full-length human kinesin-1 heavy chain …; test: as above; details: both partners purified
[4] = biological target: T1, full-length human kinesin-1 heavy chain …; test: cell-based or functional assay

B1: full-length TRAK2 (TRAK2^1–914) (natural protein, human, UniProt O60296 1-914, looked up)
chain: MSQSQNAIFTSPTGEENLMNSNHRDSESITDVCSNEDLPEVELVSLLEEQLPQYRLKVDTLFLYENQDWTQSPHQRQHASDALSPVLAEETFRYMILGTDRVEQMTKTYNDIDMVTHLLAERDRDLELAARIGQALLKRNHVLSEQNESLEEQLGQAFDQVNQLQHELCKKDELLRIVSIASEESETDSSCSTPLRFNESFSLSQGLLQLEMLQEKLKELEEENMALRSKACHIKTETVTYEEKEQQLVSDCVKELRETNAQMSRMTEELSGKSDELIRYQEELSSLLSQIVDLQHKLKEHVIEKEELKLHLQASKDAQRQLTMELHELQDRNMECLGMLHESQEEIKELRSRSGPTAHLYFSQSYGAFTGESLAAEIEGTMRKKLSLDEESSLFKQKAQQKRVFDTVRIANDTRGRSISFPALLPIPGSNRSSVIMTAKPFESGLQQTEDKSLLNQGSSSEEVAGSSQKMGQPGPSGDSDLATALHRLSLRRQNYLSEKQFFAEEWQRKIQVLADQKEGVSGCVTPTESLASLCTTQSEITDLSSASCLRGFMPEKLQIVKPLEGSQTLYHWQQLAQPNLGTILDPRPGVITKGFTQLPGDAIYHISDLEEDEEEGITFQVQQPLEVEEKLSTSKPVTGIFLPPITSAGGPVTVATANPGKCLSCTNSTFTFTTCRILHPSDITQVTPSSGFPSLSCGSSGSSSSNTAVNSPALSYRLSIGESITNRRDSTTTFSSTMSLAKLLQERGISAKVYHSPISENPLQPLPKSLAIPSTPPNSPSHSPCPSPLPFEPRVHLSENFLASRPAETFLQEMYGLRPSRNPPDVGQLKMNLVDRLKRLGIARVVKNPGAQENGRCQEAEIGPQKPDSAVYLNSGSSLLGGLRRNQSLPVIMGSFAAPVCTSSPKMGVLKED
notes: TRAK2, human, residues 1-914, full length; source: HEK 293 F GNTI-/- cells, PEI transfection, purified (TRAK purification procedure); not shown: His6-ZZ, N-terminal, cleaved; SNAP-tag or GFP, C-terminal, kept
Does B1 bind [1]?
Result: binds

B2: TRAK1^1–400 (domain or fragment, human, UniProt Q9UPV9 1-400, looked up)
chain: MALVFQFGQPVRAQPLPGLCHGKLIRTNACDVCNSTDLPEVEIISLLEEQLPHYKLRADTIYGYDHDDWLHTPLISPDANIDLTTEQIEETLKYFLLCAERVGQMTKTYNDIDAVTRLLEEKERDLELAARIGQSLLKKNKTLTERNELLEEQVEHIREEVSQLRHELSMKDELLQFYTSAAEESEPESVCSTPLKRNESSSSVQNYFHLDSLQKKLKDLEEENVVLRSEASQLKTETITYEEKEQQLVNDCVKELRDANVQIASISEELAKKTEDAARQQEEITHLLSQIVDLQKKAKACAVENEELVQHLGAAKDAQRQLTAELRELEDKYAECMEMLHEAQEELKNLRNKTMPNTTSRRYHSLGLFPMDSLAAEIEGTMRKELQLEEAESPDITHQK
modifications: LD555 or LD655 dye on the SNAP-tag in motility assays
notes: TRAK1, human, residues 1-400; full length printed as 1-953; also called T1^1–400; N-terminal coiled coil of TRAK1 with CC1 box and Spindly motif; source: baculovirus-infected SF9 cells, purified (IgG Sepharose, TEV protease); not shown: His6-ZZ, N-terminal, cleaved; SNAP-tag or GFP, C-terminal, kept
Does B2 bind [1]?
Result: binds

B3: TRAK1^1–532 (domain or fragment, human, UniProt Q9UPV9 1-532, looked up)
chain: MALVFQFGQPVRAQPLPGLCHGKLIRTNACDVCNSTDLPEVEIISLLEEQLPHYKLRADTIYGYDHDDWLHTPLISPDANIDLTTEQIEETLKYFLLCAERVGQMTKTYNDIDAVTRLLEEKERDLELAARIGQSLLKKNKTLTERNELLEEQVEHIREEVSQLRHELSMKDELLQFYTSAAEESEPESVCSTPLKRNESSSSVQNYFHLDSLQKKLKDLEEENVVLRSEASQLKTETITYEEKEQQLVNDCVKELRDANVQIASISEELAKKTEDAARQQEEITHLLSQIVDLQKKAKACAVENEELVQHLGAAKDAQRQLTAELRELEDKYAECMEMLHEAQEELKNLRNKTMPNTTSRRYHSLGLFPMDSLAAEIEGTMRKELQLEEAESPDITHQKRVFETVRNINQVVKQRSLTPSPMNIPGSNQSSAMNSLLSSCVSTPRSSFYGSDIGNVVLDNKTNSIILETEAADLGNDERSKKPGTPGTPGSHDLETALRRLSLRRENYLSERRFFEEEQERKLQELAEKGE
modifications: LD555 dye on the SNAP-tag in motility assays
notes: full length printed as 1-953; also called TRAK1 construct containing the coiled coils and part of the C-terminal domain; source: baculovirus-infected SF9 cells, purified (IgG Sepharose, TEV protease); not shown: His6-ZZ, N-terminal, cleaved; SNAP-tag or GFP, C-terminal, kept
Does B3 bind [2]?
Result: binds

Does B3 bind [3]?
Result: binds

B4: TRAK1^1–360 (domain or fragment, human, UniProt Q9UPV9 1-360, looked up)
chain: MALVFQFGQPVRAQPLPGLCHGKLIRTNACDVCNSTDLPEVEIISLLEEQLPHYKLRADTIYGYDHDDWLHTPLISPDANIDLTTEQIEETLKYFLLCAERVGQMTKTYNDIDAVTRLLEEKERDLELAARIGQSLLKKNKTLTERNELLEEQVEHIREEVSQLRHELSMKDELLQFYTSAAEESEPESVCSTPLKRNESSSSVQNYFHLDSLQKKLKDLEEENVVLRSEASQLKTETITYEEKEQQLVNDCVKELRDANVQIASISEELAKKTEDAARQQEEITHLLSQIVDLQKKAKACAVENEELVQHLGAAKDAQRQLTAELRELEDKYAECMEMLHEAQEELKNLRNKTMPNTTS
modifications: LD555 or LD655 dye on the SNAP-tag in motility assays
With B4 as the binder, how does the “kinesin landing rate on MTs in the presence of MAP7, 5-20 nM TRAK1 1-360 against no TRAK” value [4] read?
The value was 5 fold.

B5: TRAK2^1–400 (domain or fragment, human, UniProt O60296 1-400, looked up)
chain: MSQSQNAIFTSPTGEENLMNSNHRDSESITDVCSNEDLPEVELVSLLEEQLPQYRLKVDTLFLYENQDWTQSPHQRQHASDALSPVLAEETFRYMILGTDRVEQMTKTYNDIDMVTHLLAERDRDLELAARIGQALLKRNHVLSEQNESLEEQLGQAFDQVNQLQHELCKKDELLRIVSIASEESETDSSCSTPLRFNESFSLSQGLLQLEMLQEKLKELEEENMALRSKACHIKTETVTYEEKEQQLVSDCVKELRETNAQMSRMTEELSGKSDELIRYQEELSSLLSQIVDLQHKLKEHVIEKEELKLHLQASKDAQRQLTMELHELQDRNMECLGMLHESQEEIKELRSRSGPTAHLYFSQSYGAFTGESLAAEIEGTMRKKLSLDEESSLFKQKAQ
modifications: LD555 or LD655 dye on the SNAP-tag in motility assays
notes: TRAK2, human, residues 1-400; full length printed as 1-914; also called T2^1–400; N-terminal coiled coil of TRAK2 with CC1 box and Spindly motif; source: baculovirus-infected SF9 cells, purified (IgG Sepharose, TEV protease); not shown: His6-ZZ, N-terminal, cleaved; SNAP-tag or GFP, C-terminal, kept
Does B5 bind [1]?
Result: binds

B6: full-length TRAK1 (TRAK1^1–953) (natural protein, human, UniProt Q9UPV9 1-953, looked up)
chain: MALVFQFGQPVRAQPLPGLCHGKLIRTNACDVCNSTDLPEVEIISLLEEQLPHYKLRADTIYGYDHDDWLHTPLISPDANIDLTTEQIEETLKYFLLCAERVGQMTKTYNDIDAVTRLLEEKERDLELAARIGQSLLKKNKTLTERNELLEEQVEHIREEVSQLRHELSMKDELLQFYTSAAEESEPESVCSTPLKRNESSSSVQNYFHLDSLQKKLKDLEEENVVLRSEASQLKTETITYEEKEQQLVNDCVKELRDANVQIASISEELAKKTEDAARQQEEITHLLSQIVDLQKKAKACAVENEELVQHLGAAKDAQRQLTAELRELEDKYAECMEMLHEAQEELKNLRNKTMPNTTSRRYHSLGLFPMDSLAAEIEGTMRKELQLEEAESPDITHQKRVFETVRNINQVVKQRSLTPSPMNIPGSNQSSAMNSLLSSCVSTPRSSFYGSDIGNVVLDNKTNSIILETEAADLGNDERSKKPGTPGTPGSHDLETALRRLSLRRENYLSERRFFEEEQERKLQELAEKGELRSGSLTPTESIMSLGTHSRFSEFTGFSGMSFSSRSYLPEKLQIVKPLEGSATLHHWQQLAQPHLGGILDPRPGVVTKGFRTLDVDLDEVYCLNDFEEDDTGDHISLPRLATSTPVQHPETSAHHPGKCMSQTNSTFTFTTCRILHPSDELTRVTPSLNSAPTPACGSTSHLKSTPVATPCTPRRLSLAESFTNTRESTTTMSTSLGLVWLLKERGISAAVYDPQSWDRAGRGSLLHSYTPKMAVIPSTPPNSPMQTPTSSPPSFEFKCTSPPYDNFLASKPASSILREVREKNVRSSESQTDVSVSNLNLVDKVRRFGVAKVVNSGRAHVPTLTEEQGPLLCGPPGPAPALVPRGLVPEGLPLRCPTVTSAIGGLQLNSGIRRNRSFPTMVGSSMQMKAPVTLTSGILMGAKLSKQTSLR
notes: TRAK1, human, residues 1-953, full length; source: HEK 293 F GNTI-/- cells, PEI transfection, purified (TRAK purification procedure); not shown: His6-ZZ, N-terminal, cleaved; SNAP-tag or GFP, C-terminal, kept
Does B6 bind [1]?
Result: binds

Source: paper PMC10011603, “TRAK adaptors regulate the recruitment and activation of dynein and kinesin in mitochondrial transport” (Nature Communications, 2023)
